Source: US20050063948A1 (published 2005)

Molecular target: T1, αvβ3 integrin on the surface of M21 human melanoma cells (human, UniProt P06756 31-1048; P05106 27-788)
T1 construct: whole, on cells; also called αvβ3 integrin heterodimer
Test: immunofluorescence on M21 cells, detected with anti-mouse IL-12 p40 antibody and FITC secondary
Text: The specificity of mrIL-12vp binding to αᵥβ₃ integrin-positive cell lines was subsequently determined. M21, a human melanoma line which expresses αᵥβ₃ integrin on its surface (Felding-Habermann, et al. (1992) J. Clin. Invest. 89:2018-2022), was used as a αᵥβ₃ integrin-positive cell line for this analysis. Prior to the studies with mrIL-12vp, the expression of αᵥβ₃ integrin was confirmed based on intense labeling of M21 cells with the anti-αᵥβ₃ integrin antibody LM609 using flow cytometry. […] Immunofluorescence evaluation of cells grown on chamber slides confirmed specific binding of mrIL-12vp, but not mrIL-12 to M21 cells. There was no binding of mrIL-12 or mrIL-12vp to Saos-2 cells.
Immunofluorescence labeling was performed in accordance with standard methods (Teng, et al. (2002) Am. J. Physiol. Renal Physiol. 282:F1075-F1083). M21 or Saos-2 cells were incubated with 5 μg of either mrIL-12 or mrIL-12vp for 30 minutes at 37 C in a 5% CO₂ atmosphere. The cells were rinsed with PBS, and then fixed with freshly prepared 4% paraformaldehyde for 10 minutes at room temperature. Detection of mrIL-12 or mrIL-12vp binding to cells used an anti-mouse IL-12 p40 antibody, followed by three washes with PBS and incubation with FITC-conjugated goat anti-mouse IgG (1:200) for 1 hour in the dark. As a control, anti-mouse IL-12 p40 was omitted from the labeling process.

T1 sequence (P06756 31-1048, chain 1 of 2): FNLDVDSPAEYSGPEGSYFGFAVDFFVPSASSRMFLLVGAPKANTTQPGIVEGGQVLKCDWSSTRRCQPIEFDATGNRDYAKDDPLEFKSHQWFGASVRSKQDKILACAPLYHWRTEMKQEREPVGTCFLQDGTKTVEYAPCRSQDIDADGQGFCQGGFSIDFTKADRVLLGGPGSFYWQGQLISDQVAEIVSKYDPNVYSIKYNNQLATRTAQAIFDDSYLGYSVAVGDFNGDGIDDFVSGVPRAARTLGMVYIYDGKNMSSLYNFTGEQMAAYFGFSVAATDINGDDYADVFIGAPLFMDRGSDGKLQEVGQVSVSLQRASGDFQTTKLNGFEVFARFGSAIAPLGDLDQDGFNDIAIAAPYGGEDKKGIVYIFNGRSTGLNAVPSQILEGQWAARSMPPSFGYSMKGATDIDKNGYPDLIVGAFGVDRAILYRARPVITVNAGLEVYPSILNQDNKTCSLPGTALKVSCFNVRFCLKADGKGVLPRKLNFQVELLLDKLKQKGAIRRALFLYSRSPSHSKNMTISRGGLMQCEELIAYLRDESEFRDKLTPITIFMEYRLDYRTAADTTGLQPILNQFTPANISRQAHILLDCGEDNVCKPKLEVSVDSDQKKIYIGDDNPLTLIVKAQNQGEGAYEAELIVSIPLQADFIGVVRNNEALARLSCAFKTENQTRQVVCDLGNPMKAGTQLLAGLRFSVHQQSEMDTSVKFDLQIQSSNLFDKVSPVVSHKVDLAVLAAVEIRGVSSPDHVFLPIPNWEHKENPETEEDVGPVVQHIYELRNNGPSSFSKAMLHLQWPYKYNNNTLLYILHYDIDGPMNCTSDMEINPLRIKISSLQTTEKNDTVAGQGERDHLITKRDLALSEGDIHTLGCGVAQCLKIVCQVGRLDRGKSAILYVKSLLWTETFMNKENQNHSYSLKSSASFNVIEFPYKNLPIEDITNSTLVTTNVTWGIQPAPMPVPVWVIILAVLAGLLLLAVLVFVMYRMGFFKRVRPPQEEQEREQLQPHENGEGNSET
T1 sequence (P05106 27-788, chain 2 of 2): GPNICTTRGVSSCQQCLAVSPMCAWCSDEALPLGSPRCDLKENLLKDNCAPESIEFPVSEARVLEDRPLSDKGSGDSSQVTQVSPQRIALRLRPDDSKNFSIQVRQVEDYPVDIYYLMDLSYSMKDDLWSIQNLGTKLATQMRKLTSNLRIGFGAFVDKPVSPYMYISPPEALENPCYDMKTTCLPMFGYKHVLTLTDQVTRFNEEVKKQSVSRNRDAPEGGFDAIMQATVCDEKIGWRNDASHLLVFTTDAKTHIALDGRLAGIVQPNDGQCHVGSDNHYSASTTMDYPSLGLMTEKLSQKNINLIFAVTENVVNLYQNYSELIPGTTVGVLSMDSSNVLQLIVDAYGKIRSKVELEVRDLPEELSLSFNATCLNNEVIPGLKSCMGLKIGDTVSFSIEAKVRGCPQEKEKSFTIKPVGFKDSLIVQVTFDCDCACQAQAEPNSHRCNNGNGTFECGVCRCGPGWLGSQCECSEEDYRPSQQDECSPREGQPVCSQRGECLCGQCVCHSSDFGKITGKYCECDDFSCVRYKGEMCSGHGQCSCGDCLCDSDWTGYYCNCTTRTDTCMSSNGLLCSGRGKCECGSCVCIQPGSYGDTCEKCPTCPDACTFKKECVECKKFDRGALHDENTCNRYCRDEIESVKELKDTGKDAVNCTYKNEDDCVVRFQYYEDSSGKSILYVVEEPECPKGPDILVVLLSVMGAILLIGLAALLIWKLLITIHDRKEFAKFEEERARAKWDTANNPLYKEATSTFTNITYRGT

binding result: no binding (tested: 5 µg)
B1: murine recombinant IL-12 (mrIL-12) (ligand, mouse)
chain 1: RVIPVSGPARCLSQSRNLLKTTDDMVKTAREKLKHYSCTAEDIDHEDITRDQTSTLKTCLPLELHKNESCLATRETSSTTRGSCLPPQKTSLMMTLCLGSIYEDLKMYQTEFQAINAALQNHNHQQIILDKGMLVAIDELMQSLNHNGETLRQKPPVGEADPYRVKMKLCILLHAFSTRVVTINRVMGYLSSA
chain 2: MWELEKDVYVVEVDWTPDAPGETVNLTCDTPEEDDITWTSDQRHGVIGSGKTLTITVKEFLDAGQYTCHKGGETLSHSHLLLHKKENGIWSTEILKNFKNKTFLKCEAPNYSGRFTCSWLVQRNMDLKFNIKSSSSSPDSRAVTCGMASLSAEKVTLDQRDYEKYSVSCQEDVTCPTAEETLPIELALEARQQNKYENYSTSFFIRDIIKPDPPKNLQMKPLKNSQVEVSWEYPDSWSTPHSYFSLKFFVRIQRKKEKMKETEEGCNQKGAFLVEKTSTEVQCKGGNVCVQAQDRYYNSSCSKWACVPCRVRS
notes: Bought
